Experimental data from patent US20090123940A1, “MOLECULES INVOLVED IN SYNAPTOGENESIS AND USES THEREFOR” (THE JOHNS HOPKINS UNIVERSITY, priority 2007, published 2009).
Marks after values point to notes of the source that are not given here.

Key:
cultured spinal neurons = test: Narp overexpression in transfected cultured spinal neurons; type: cell-based
Method: In order to characterize the synaptic targeting of Narp in neurons, a C-terminal myc-tagged version of Narp (designated myc-Narp) was transfected into cultured spinal neurons (Dong et al., Nature 386:279-84, 1997). After 72 hours of expression, live staining with an anti-myc (mouse) antibody, followed by a FITC labeled anti-mouse secondary, was used to reveal the surface distribution of the transfected Narp. Subsequent staining of the same cells, after fixation and permeabilization, with an AMCA labeled anti-myc (rabbit) antibody was used to identify transfected neurons and their axons and dendrites, while GluR1 and GAD staining were used to identify excitatory and inhibitory synapses, respectively.
Given the presence of Narp on both pre and postsynaptic processes and the biochemical propensity of pentraxins to form head to head multimeric aggregates (Emsley et al., Nature 367, 338-45, 1994; Gewurz et al., Curr. Opin. Immunol. 7:54-64, 1995; Bottazzi et al., J. Biol. Chem. 272:32817-23, 1997), the possibility that Narp may function to facilitate the formation of excitatory synapses was explored. Thus, the number of synaptic GluR1 clusters (i.e., GluR1 clusters associated with synaptophysin staining) in transfected neurons over expressing myc-Narp was compared with the number of synaptic GluR1 clusters in untransfected neurons or in neurons transfected with a control plasmid containing the C-terminus of the NMDA receptor subunit NR1A (NR1CT).

[1] = tested on: GluR1 expressing 293 cells; test: Co-culture of separately transfected 293 cells, intercellular clustering; type: cell-based
Text: To evaluate whether Narp could mediate intercellular aggregation of GluR1, similar to that expected at a synapse, myc-tagged Narp and GluR1 were expressed separately in 293 cells and subsequently co-cultured together. Under these conditions, surface Narp clusters on one cell could induce large surface GluR1 aggregates on another. In a total of 109 contacts between a GluR1 expressing transfected cell and a Narp expressing cell, there was a mean of 1.2+/−0.75 large overlapping GluR1/myc-Narp clusters at these sites of contact. […] Moreover, the number of GluR1 clusters at sites of contact with non-Narp expressing 293 cells was extremely low [0.07 R1 clusters per contact with a GluR2 expressing cell (n=76); 0.03 R1 clusters per contact with a Pick1/GluR2 expressing cell (n=58)]. The interaction between GluR1 and Narp required contact between the heterologous cells, as there was no evidence that Narp could diffuse from one cell and induce GluR1 clusters on another.

[2] = tested on: GluR1 on cultured spinal neurons; test: Co-culture of myc-Narp expressing 293 cells with spinal neurons; type: cell-based
Method: The neurons and transfected HEK-293 cells were cocultured for 48 hours and then fixed and stained for myc-Narp, GluR1 and synapsin. When contacts between myc-Narp expressing 293 cells and GluR1 expressing spinal neurons were examined for overlapping myc-Narp/GluR1 clusters, 64% (82/128) of the myc-Narp clusters in contact with the neuron overlapped with neuronal GluR1 clusters (mean of 2.6+/−1.5 overlapping myc-Narp/GluR1 clusters per 293-neuron contact).

[3] = biological target: T1, HA GluR1 surface diffusion (Homo sapiens, UniProt P42261); test: Single Quantum Dot Tracking of HA-tagged receptors on hippocampal neurons; type: cell-based, mouse
T1 construct: expressed in transfected cells; host or cells: dissociated mouse hippocampal neurons (P1-3 pups)
Method: (§1) Single Quantum Dot (QD) Tracking. Hippocampal neurons were prepared from postnatal days 1-3 mouse pups and cultured in Banker Style conditions to 6 D. I. V., 8 D. I. V., or 11 D. I. V. Cultured hippocampal neurons were transfected as above. 0.5 μL of QD 655 mouse IgG (QuantumDot Corporation) was incubated with 0.8 μg of HA antibody (Santa Cruz) in a 20 μL volume of PBS for 1 hour at room temperature. Neurons were incubated in a 1:500 dilution of this QD solution for 15 minutes at 37° C., 5% CO2. After brief washes with culture media, the neurons were mounted on a live imaging chamber with culture media/10 mM Hepes. Transfected neurons were identified based on GFP fluorescence. 100 millisecond exposure images were collected from neurons at a frequency of 2.67 Hz for 60 seconds with a coolsnap HQ (Photometrix). The graphical and numerical representation of the trajectory of each QD was extracted from each stack of images using the Motion Analysis Package of Metamorph (Universal Imaging Corporation). The numerical representation of the trajectory was used to calculate a diffusion coefficient using MSD software. Analysis was performed blinded.
(§2) Narp reduces surface diffusion of GluR1 but not GluR1ΔNAR1. GluR1ΔNAR1 was used to examine the hypothesis that Narp and NP1 function to limit the diffusion of receptors, and thereby recruit GluR1 to synapses. As part of a validation of GluR1ΔNAR1 for cell biological studies it was confirmed that it retained agonist-dependent channel activity. […] The mobility of HA GluR1 relative to HA GluR1ΔNAR1 on the surface of neuronal dendrites were compared using 5 nm fluorescent Quantum Dots (QDs) and Single Quantum Dot Tracking (SQDT). Dissociated hippocampal cultures (DIV 6) were transfected with HA GluR1-IRES2-GFP or HA-GluR1ΔNAR1-IRES2-GFP. […] QD-HA-GluR1 and QD-HA-GluR1ΔNAR1 were visualized by live, time-lapse fluorescence imaging. The trajectories of QD-coupled receptors were determined by the position of the QD in each frame, and the receptor diffusion coefficients were calculated from QD trajectories over multiple trials. […]

[4] = biological target: T2, HA GluR1 surface diffusion (Homo sapiens, UniProt P42261, A320G/C323G/D322G/DEL281-317/N319G); test: as above; type: cell-based, mouse; details: 7 D. I. V., Narp transgene
T2 construct: expressed in transfected cells; host or cells: dissociated mouse hippocampal neurons (P1-3 pups)
Method: as §1, §2

[5] = transfected neurons, +/- S.D., 5 experiments

T1 sequence (P42261 19-906): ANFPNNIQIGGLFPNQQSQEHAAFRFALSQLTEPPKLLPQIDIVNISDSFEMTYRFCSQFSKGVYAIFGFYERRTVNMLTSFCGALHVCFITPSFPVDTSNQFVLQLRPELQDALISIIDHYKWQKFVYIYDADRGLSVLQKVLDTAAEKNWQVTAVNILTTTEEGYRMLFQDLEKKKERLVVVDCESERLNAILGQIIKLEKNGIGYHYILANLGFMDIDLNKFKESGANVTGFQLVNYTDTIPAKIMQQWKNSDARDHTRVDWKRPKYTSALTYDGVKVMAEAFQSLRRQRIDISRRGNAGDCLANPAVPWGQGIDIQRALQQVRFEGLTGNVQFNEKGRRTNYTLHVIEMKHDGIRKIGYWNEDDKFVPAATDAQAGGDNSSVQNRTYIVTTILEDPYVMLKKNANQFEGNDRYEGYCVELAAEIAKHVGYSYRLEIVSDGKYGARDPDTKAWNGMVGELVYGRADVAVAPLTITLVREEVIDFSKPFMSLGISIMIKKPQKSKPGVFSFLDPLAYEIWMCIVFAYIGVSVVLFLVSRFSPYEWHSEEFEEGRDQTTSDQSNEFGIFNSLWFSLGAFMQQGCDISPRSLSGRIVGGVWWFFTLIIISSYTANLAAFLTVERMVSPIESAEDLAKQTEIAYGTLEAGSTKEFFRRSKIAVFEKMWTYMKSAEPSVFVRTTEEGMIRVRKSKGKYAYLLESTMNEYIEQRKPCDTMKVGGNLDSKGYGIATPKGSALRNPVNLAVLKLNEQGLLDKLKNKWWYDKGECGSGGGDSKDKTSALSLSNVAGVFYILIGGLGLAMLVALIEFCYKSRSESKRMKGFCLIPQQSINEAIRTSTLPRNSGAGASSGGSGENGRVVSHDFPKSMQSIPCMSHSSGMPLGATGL
T2 sequence (P42261 with tags, fused parts or gaps DEL281-317/N319G/A320G/D322G/C323G): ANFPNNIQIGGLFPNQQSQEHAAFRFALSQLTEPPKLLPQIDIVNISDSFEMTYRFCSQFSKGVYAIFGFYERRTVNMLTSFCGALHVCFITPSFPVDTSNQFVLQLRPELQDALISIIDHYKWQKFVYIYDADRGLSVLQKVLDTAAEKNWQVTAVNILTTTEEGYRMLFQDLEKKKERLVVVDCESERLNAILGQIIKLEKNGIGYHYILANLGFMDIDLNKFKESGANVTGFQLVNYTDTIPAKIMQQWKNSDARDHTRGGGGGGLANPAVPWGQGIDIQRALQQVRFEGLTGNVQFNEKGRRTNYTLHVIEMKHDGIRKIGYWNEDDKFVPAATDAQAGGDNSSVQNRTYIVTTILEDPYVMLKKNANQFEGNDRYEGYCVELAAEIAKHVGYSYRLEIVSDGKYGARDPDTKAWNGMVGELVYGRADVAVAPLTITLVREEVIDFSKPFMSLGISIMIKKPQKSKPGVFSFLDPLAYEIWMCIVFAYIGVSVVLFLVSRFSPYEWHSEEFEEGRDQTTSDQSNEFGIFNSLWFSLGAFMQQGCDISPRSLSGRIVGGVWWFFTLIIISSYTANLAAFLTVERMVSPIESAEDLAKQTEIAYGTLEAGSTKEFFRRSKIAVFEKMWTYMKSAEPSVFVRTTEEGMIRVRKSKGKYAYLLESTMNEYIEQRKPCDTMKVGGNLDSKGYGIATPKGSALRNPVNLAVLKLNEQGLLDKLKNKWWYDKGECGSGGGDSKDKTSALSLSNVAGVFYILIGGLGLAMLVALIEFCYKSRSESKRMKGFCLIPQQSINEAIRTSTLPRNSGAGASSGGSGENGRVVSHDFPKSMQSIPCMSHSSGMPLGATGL

B1: Narp: Neuronal activity regulated pentraxin (SEQ ID NO:2), expressed by transfection, also as C-terminal myc-tagged version (protein, listed as Rattus norvegicus)
chain: MLALLTAGVALAVAAGQAQDNPIPGSRFVCTALPPEAARAGCPLPAMPMQGGALSPEEELRAAVLHWRETVVQQKETLGAQREAIRELTSKLARCEGLAGGKARGTGATGKDTMGDLPRDPGHVVEQLSRSLQTLKDRLESLELQLHTNASNAGLPSDFREVLQRRLGELERQLLRKVAELEDEKSLLHNETSAHRQKTENTLNALLQRVTELERGNSAFKSPDAFKVSLPLRTNYLYGKIKKTLPELYAFTICLWLRSSASPGIGTPFSYAVPGQANEIVLIEWGNNPIELLINDKVAQLPLFVSDGKWHHICITWTTRDGMWEAFQDGEKLGTGENLAPWHPIKPGGVLILGQEQDTVGGRFDATQAFVGELSQFNIWDRVLRAQEIINIANCSTNMPGNIIPWVDNNVDVFGGASKWPVETCEERLLDL
modifications: optional C-terminal myc tag
Cultured spinal neurons; five transfection experiments, p<0.01
  increase in number of synaptic GluR1 clusters compared to either control: 1.9 fold
Cultured spinal neurons; [5]
  Synaptic GluR1 Clusters: 13.0 +/− 3.8 **
  Synaptophysin Clusters: 16.0 +/− 4.6 *
Cultured spinal neurons; transfected neurons, permeablized myc staining at 100X, 3 experiments
  Neuritic Length: 225 µm
Cultured spinal neurons; transfected neurons, separate series of 3 experiments
  GAD Clusters: 5.9 +/− 3.9
[1]; 109 contacts between a GluR1 expressing cell and a Narp expressing cell
  large overlapping GluR1/myc-Narp clusters at sites of contact: 1.2+/−0.75
[1]; n=32 contacts
  coclusters of NR1 and NR2A: 0
[1]; n=121
  clusters of EAAC1 at sites of contact: 0.04+/−0.05
[1]; untagged Narp co-expressed with GluR1, co-cultured with cells expressing only myc-tagged Narp, n=124
  intercellular myc-Narp*GluR1 co-clusters: 2.6+/−1.4
[2]; 48 hours coculture
  myc-Narp clusters in contact with the neuron overlapping with neuronal GluR1 clusters: 64%
  overlapping myc-Narp/GluR1 clusters per 293-neuron contact: 2.6+/−1.5
[2]; soluble secreted form
  bioactivity of soluble Narp collected from the media (binding to transfected 293 cells): no bioactivity
[3]; 7 D. I. V.
  slowing of HA GluR1 average diffusion rate versus absence of Narp transgene: 58%
[3]; 9 D. I. V.
  slowing of HA GluR1 diffusion in the presence of the Narp transgene: 44%
[4]
  HA-GluR1ΔNAR1 average diffusion rate: not significantly altered
